The results in this text go back to patent US20030175278A1.

Holding throughout (assay): Y2H β-galactosidase liquid culture assay (ONPG)
Assay [1] has as its target PS1-COOH terminus Y2H bait (human).
The target in assay [2] is PS1-Loop Y2H bait (human).
For assay [3], the target named is PS2-Loop Y2H bait (human) (UniProt P49810).

Bounds are passed on as bounds.

PS2-Loop Y2H bait (human), sequence (P49810 271-361): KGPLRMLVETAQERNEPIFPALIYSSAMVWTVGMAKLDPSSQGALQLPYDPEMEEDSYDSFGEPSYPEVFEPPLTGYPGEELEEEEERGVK
PS1-Loop Y2H bait (human), sequence (P79802 273-380): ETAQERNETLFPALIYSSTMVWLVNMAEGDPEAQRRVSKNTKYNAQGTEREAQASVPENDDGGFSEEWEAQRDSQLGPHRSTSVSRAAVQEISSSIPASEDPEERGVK

Turning to “near full-length ubiquilin-prey clone (FIG. 2 III, construct H without GST), M37-S595 (from UniProt Q9UMX0 37-587)”, in assay [1], the fold β-galactosidase activity compared with negative-control baits is over 12 fold. Further, the interaction strength relative to the PS2-COOH-terminal bait in assay [2] and in assay [3] was 2 fold in each case.
